Assay results: US6379664

Key:
[1] = target: BSA-GSH mixed disulfide, P02769
[2] = target: G3PD from H2O2 (0.5 mM) pretreated rabbit lens epithelial cells
[3] = target: alpha crystallin-GSH mixed disulfide
[4] = target: alpha crystalline-cystine mixed disulfide
[5] = target: gamma crystallin-GSH mixed disulfide
[6] = target: protein-cysteine mixed disulfides (PSSC); assay: cell-based or functional assay

Sequence of BSA-GSH mixed disulfide, P02769 (P02769 25-607): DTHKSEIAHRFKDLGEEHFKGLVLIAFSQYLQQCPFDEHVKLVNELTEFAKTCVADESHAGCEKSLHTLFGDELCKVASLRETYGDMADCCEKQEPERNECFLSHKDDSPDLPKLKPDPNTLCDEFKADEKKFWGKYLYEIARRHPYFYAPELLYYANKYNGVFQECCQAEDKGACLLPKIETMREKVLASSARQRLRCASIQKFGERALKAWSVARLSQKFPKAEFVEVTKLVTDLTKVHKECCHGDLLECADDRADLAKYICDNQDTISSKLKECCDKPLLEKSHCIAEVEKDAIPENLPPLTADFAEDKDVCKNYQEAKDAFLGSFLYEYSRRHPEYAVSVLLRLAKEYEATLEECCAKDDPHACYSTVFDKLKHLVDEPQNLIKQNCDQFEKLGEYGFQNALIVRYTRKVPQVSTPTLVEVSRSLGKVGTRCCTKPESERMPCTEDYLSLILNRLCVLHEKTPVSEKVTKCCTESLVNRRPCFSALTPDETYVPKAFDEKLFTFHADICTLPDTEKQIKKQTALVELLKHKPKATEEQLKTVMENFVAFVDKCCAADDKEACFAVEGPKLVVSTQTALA

Row | Binder | dethiolation of 3H-PSSG (nmol dethiolated per µg thioltransferase protein; TCA-soluble radioactivity) [1] [nmol/µg thioltransferase] | regeneration of G3PD activity (percent of activity regenerated by 30 mM DTT) [2] | dethiolation of 3H-PSSG (nmol dethiolated per µg thioltransferase protein; TCA-soluble radioactivity) [3] [nmol/µg thioltransferase] | dethiolation of 14C-PSSC [4] | dethiolation of 3H-PSSG (nmol dethiolated per µg thioltransferase protein; TCA-soluble radioactivity) [5] [nmol/µg thioltransferase] | substrate preference in dethiolation [5] | dethiolation of PSSC relative to PSSG [6] [%]
1 | recombinant human lens thioltransferase (protein) AQEFVNCKIQPGKVVVFIKPTCPFCVKTQELLSQLPFKEGLLEFVDITATSDTNEIQDYLQQLTGARTVPRVFIGKECIGGCTDLESMHKRGELLTRLQQIGALK | 0.3 | regeneration of G3PD from H2O2 (0.5 mM) pretreated rabbit cells by recombinant human lens thioltransferase | 0.6 | alpha crystalline-cystine mixed disulfide could not be dethiolated by lens thioltransferase | 1.15 | Gamma crystallin-thiol mixed disulfide appears to be the favorable substrate for lens thioltransferase | –
2 | recombinant human lens thioltransferase, P12309 2-106 (enzyme) AQEFVNCKIQPGKVVVFIKPTCPFCVKTQELLSQLPFKEGLLEFVDITATSDTNEIQDYLQQLTGARTVPRVFIGKECIGGCTDLESMHKRGELLTRLQQIGALK | – | – | – | – | – | – | 50 to 60
